{"source": "patent US20240368655", "target": "Concanavalin A (UniProt P02866)", "experiment": "SELEX", "conditions": "FANA copy of the listed DNA template; every U is C8-alkyne-FANA U conjugated to 2-azidoethyl-alpha-D-mannose; displayed on its encoding dsDNA; round 3 recovery by qPCR; round 1 about 0.14%; PBS, 2.5 mM MgCl2, 1 mM CaCl2, 0.1 mM MnCl2, 0.01% Tween 20, room temperature"}
{"sequence": "CCTATAGCCGTTTGCACAAGNNNNNNNNNNNNNNNNNNNNNNNNNNNNNNNNNNNNNNNNCCCGTACCCGTTAAGATTACTTCGGACTGGGATC [Man-cmFANA N40 library, round 3]", "values": [{"measurement": "binding", "value": 47, "unit": "% recovery"}]}
